Laboratory results as given in article PMC11951046.

Key:
[1] = molecular target: Cyt2Aa2 protoxin (Bacillus thuringiensis subsp. darmstadiensis); experiment: SDS-PAGE of unheated sample with immunodetection
[2] = molecular target: activated Cyt2Aa2 protein (chymotrypsin-activated) (Bacillus thuringiensis subsp. darmstadiensis); experiment: SDS-PAGE ladder pattern of unheated sample with immunodetection

Substance	stoichiometry N [1]	stoichiometry N [2]
Cyt2Aa2 protoxin (natural protein)	2	–
activated Cyt2Aa2 protein (chymotrypsin-activated) (natural protein)	–	> 10
